Experimental data taken from patent US20260151494A1 (ARO BIOTHERAPEUTICS, published 2026).
Positions count from the first letter of the chain named.

B1: CD71-binding FN3 domain SEQ ID NO: 235 (designed binder)
chain: MSLPAPKNLVVSRVTEDSARLSWTAPDAAFDSFEIVYAEPVRFGEAIVLTVPGSERSYDLTGLKPGTEYWVQIGGVKGGNWSAPLSAIFTT
B2: CD71-binding FN3 domain SEQ ID NO: 237 (designed binder)
chain: B1 chain with V36A, A38F, P40R, V41T, R42W, N80D, A83K
B3: CD71-binding FN3 domain SEQ ID NO: 269 (designed binder)
chain: B1 chain with V36G, A38F, P40N, V41D, R42Y, W70V, Q72F
B4: CD71-binding FN3 domain SEQ ID NO: 271 (designed binder)
chain: MSLPAPKNLVVSRITEDSARLSWTAPDAAFDSFEIGYWENAYKGEAIVLTVPGSERSYDLTGLKPGTEYVVFIGGVKGGVWSVPLSAIFTT
B5: CD71-binding FN3 domain SEQ ID NO: 300 (designed binder)
chain: B4 chain with I14V, W38F, N40A, A41T, Y42P, K43N, V70K, V80R, V83K
B6: CD71-binding FN3 domain SEQ ID NO: 284 (designed binder)
chain: B4 chain with I14V, V70M
B7: CD71-binding FN3 domain SEQ ID NO: 236 (designed binder)
chain: B1 chain with A25E, V36G, A38F, P40N, V41L, R42Y, F43L
B8: CD71-binding FN3 domain SEQ ID NO: 275 (designed binder)
chain: B1 chain with V36G, A38F, P40N, V41L, R42Y, F43L, S86V, I88E
B9: CD71-binding FN3 domain SEQ ID NO: 282 (designed binder)
chain: MSLPAPKNLVVSRVTEDSARLSWTAPDAAFDSFDIGYFELTWYGEAIVLTVPGSERSYDLTGLKPGTEYWVSIGGVKGGRFSEPLYARFTT
B10: CD71-binding FN3 domain SEQ ID NO: 255 (designed binder)
chain: B1 chain with A25T, V36A, A38F, P40I, V41A, R42W, F43L, N80A, W81Y, A83T
B11: CD71-binding FN3 domain SEQ ID NO: 285 (designed binder)
chain: B4 chain with I14V, P26T
B12: CD71-binding FN3 domain SEQ ID NO: 274 (designed binder)
chain: B1 chain with A38W, P40Q, R42G, F43V, N80G, W81F, A83E
B13: CD71-binding FN3 domain SEQ ID NO: 286 (designed binder)
chain: B1 chain with N80E, A83S
B14: CD71-binding FN3 domain SEQ ID NO: 280 (designed binder)
chain: B1 chain with P26L, V36G, A38F, P40N, V41L, R42Y, F43L
B15: CD71-binding FN3 domain SEQ ID NO: 239 (designed binder)
chain: B1 chain with A38Q, P40N, V41S, R42A, F43Y
B16: CD71-binding FN3 domain SEQ ID NO: 298 (designed binder)
chain: B1 chain with V36G, A38F, P40N, V41L, R42Y, F43L, G79D
B17: CD71-binding FN3 domain SEQ ID NO: 244 (designed binder)
chain: B4 chain with I14V, W38F, A41L, K43L, V80E, W81Y, V83I
B18: CD71-binding FN3 domain SEQ ID NO: 247 (designed binder)
chain: B1 chain with V36G, A38F, P40N, V41L, R42Y, F43L, N80E
B19: CD71-binding FN3 domain SEQ ID NO: 242 (designed binder)
chain: B1 chain with V36G, A38F, P40N, V41L, R42Y, F43L, E68K
B20: CD71-binding FN3 domain SEQ ID NO: 254 (designed binder)
chain: B1 chain with V36G, A38F, P40N, V41L, R42Y, F43L, T50W
B21: CD71-binding FN3 domain SEQ ID NO: 272 (designed binder)
chain: B1 chain with V36A, A38G, P40A, V41A, R42Y, F43D, V48A, T50L
B22: CD71-binding FN3 domain SEQ ID NO: 251 (designed binder)
chain: B1 chain with V36G, A38F, P40N, V41L, R42Y, F43L, S86V, I88T
B23: CD71-binding FN3 domain SEQ ID NO: 283 (designed binder)
chain: MSLPAPKNLVVSRVTEDSARLSWTAPDAAFDSFEIAYQELSLWGEAIVLTVPGSERSYDLTGLKPGTEYYVHIGGVKGGIWSSPLSAYSTT
B24: CD71-binding FN3 domain SEQ ID NO: 249 (designed binder)
chain: B4 chain with I14V, K43R
B25: CD71-binding FN3 domain SEQ ID NO: 296 (designed binder)
chain: B9 chain with R80I, F81W, E83S, Y86S, R88I
B26: CD71-binding FN3 domain SEQ ID NO: 289 (designed binder)
chain: B1 chain with V36A, A38F, P40I, V41A, R42W, F43L, N80A, W81Y, A83T
B27: CD71-binding FN3 domain SEQ ID NO: 297 (designed binder)
chain: B9 chain with D34E, G36S, L40N, W70S, S72R, G74F, R80N, E83F, Y86S, R88I
B28: CD71-binding FN3 domain SEQ ID NO: 256 (designed binder)
chain: B1 chain with A5V, V36G, A38F, P40N, V41L, R42Y, F43L
B29: CD71-binding FN3 domain SEQ ID NO: 299 (designed binder)
chain: B1 chain with V36A, A38F, P40N, V41L, R42Y, F43L
B30: CD71-binding FN3 domain SEQ ID NO: 257 (designed binder)
chain: B4 chain with R13H, I14V
B31: CD71-binding FN3 domain SEQ ID NO: 268 (designed binder)
chain: B1 chain with V36G, A38F, P40N, V41L, R42Y, F43L, L60P
B32: CD71-binding FN3 domain SEQ ID NO: 276 (designed binder)
chain: B1 chain with V36A, A38F, P40L, V41D, R42Y, F43V, N80T, A83G, T91I
B33: CD71-binding FN3 domain SEQ ID NO: 263 (designed binder)
chain: B1 chain with V36G, A38F, P40N, V41L, R42Y, F43L, A83S
B34: CD71-binding FN3 domain SEQ ID NO: 250 (designed binder)
chain: B1 chain with V36G, A38F, P40N, V41L, R42Y, F43L, K77N
B35: CD71-binding FN3 domain SEQ ID NO: 238 (designed binder)
chain: B4 chain with I14V, W38F, A41D, K43F, V80K, V83A
B36: CD71-binding FN3 domain SEQ ID NO: 246 (designed binder)
chain: B23 chain with S89F
B37: CD71-binding FN3 domain SEQ ID NO: 277 (designed binder)
chain: B9 chain with D34E, W42Y, S72Q, R80G, Y86S, R88I
B38: CD71-binding FN3 domain SEQ ID NO: 248 (designed binder)
chain: B4 chain with I14V, W38F, A41L, K43L, V80D, W81F, V83P
B39: CD71-binding FN3 domain SEQ ID NO: 278 (designed binder)
chain: B1 chain with V36G, A38F, P40N, V41L, R42Y, F43L, Y58H
B40: CD71-binding FN3 domain SEQ ID NO: 292 (designed binder)
chain: B4 chain with I14V, P84S
B41: CD71-binding FN3 domain of SEQ ID NO: 204 (designed binder)
chain: MSLPAPKNLVVSRVTEDSARLSWTAPDAAFDSFLIQYDEWPTYGEAIVLTVPGSERSYDLTGLKPGTEYLVEIVGVKGGNLSGPLSAIFTT
B42: CD71-binding FN3 domain of SEQ ID NO: 198 (designed binder)
chain: MSLPAPKNLVVSRVTEDSARLSWTAPDAAFDSFLIGYTEYSVYGEAIVLTVPGSERSYDLTGLKPGTEYTVWIMGVKGGIKSTPLSAISTT
B43: CD71-binding FN3 domain of SEQ ID NO: 218 (designed binder)
chain: MSLPAPKNLVVSRVTEDSARLSWTAPDAAFDSFEIAYHEDDFYGEAIALLVPGSERSYDLTGLKPGTEYIVHIGGVKGGFFSSPLYAWFTT

What follows are binders tested against T1, human CD71 extracellular domain (CD71-ECD) (human, UniProt P02786 89-760) (assay: primary ELISA; also: test concentration or dose not given here).
T1 construct: also called hCD71; human CD71-ECD
T1 sequence (P02786 89-760): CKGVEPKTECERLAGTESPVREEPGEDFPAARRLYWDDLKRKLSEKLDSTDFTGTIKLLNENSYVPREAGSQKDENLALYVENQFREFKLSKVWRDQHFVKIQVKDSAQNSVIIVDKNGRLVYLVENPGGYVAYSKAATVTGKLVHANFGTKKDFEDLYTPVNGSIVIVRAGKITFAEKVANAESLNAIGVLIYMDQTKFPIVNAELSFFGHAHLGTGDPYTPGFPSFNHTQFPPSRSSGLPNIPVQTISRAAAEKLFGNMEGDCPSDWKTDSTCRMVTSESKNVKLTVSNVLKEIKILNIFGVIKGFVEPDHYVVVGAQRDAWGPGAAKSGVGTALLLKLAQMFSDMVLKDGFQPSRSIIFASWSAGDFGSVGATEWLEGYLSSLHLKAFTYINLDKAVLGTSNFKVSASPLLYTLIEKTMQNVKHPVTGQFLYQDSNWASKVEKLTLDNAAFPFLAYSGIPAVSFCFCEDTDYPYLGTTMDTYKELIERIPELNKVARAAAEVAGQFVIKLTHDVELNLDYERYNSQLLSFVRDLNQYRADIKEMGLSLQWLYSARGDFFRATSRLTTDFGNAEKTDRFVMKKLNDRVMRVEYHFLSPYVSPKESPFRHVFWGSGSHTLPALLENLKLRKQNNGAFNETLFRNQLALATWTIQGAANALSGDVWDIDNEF

| RLU [RLU] | Binder |
| --- | --- |
| 3.8e+06 | B1 |
| 3.98e+06 | B2 |
| 4.35e+06 | B3 |
| 2.57e+06 | B4 |
| 3.88e+06 | B5 |
| 2.37e+06 | B6 |
| 3.29e+06 | B7 |
| 3.4e+06 | B8 |
| 3.2e+06 | B9 |
| 3.73e+06 | B10 |
| 2.81e+06 | B11 |
| 2.37e+06 | B12 |
| 2.66e+06 | B13 |
| 3.21e+06 | B14 |
| 1.88e+06 | B15 |
| 3.67e+06 | B16 |
| 3.25e+06 | B17 |
| 2.89e+06 | B18 |
| 1.61e+06 | B19 |
| 3.29e+06 | B20 |

| RLU [RLU] | Binder |
| --- | --- |
| 2.83e+06 | B21 |
| 4.09e+06 | B22 |
| 2.07e+06 | B23 |
| 3.02e+06 | B24 |
| 3.39e+06 | B25 |
| 3.57e+06 | B26 |
| 2.64e+06 | B27 |
| 2.39e+06 | B28 |
| 3.26e+06 | B29 |
| 2.83e+06 | B30 |
| 4.1e+06 | B31 |
| 3.13e+06 | B32 |
| 3.32e+06 | B33 |
| 3.41e+06 | B34 |
| 3.86e+06 | B35 |
| 3.68e+06 | B36 |
| 4.13e+06 | B37 |
| 3.49e+06 | B38 |
| 3.46e+06 | B39 |
| 4.33e+06 | B40 |

What follows are binders tested against T2, human CD71 extracellular domain (human, UniProt P02786 89-760) (assay: primary ELISA; also: test concentration or dose not given here).
T2 construct: also called hCD71; human CD71-ECD
T2 sequence (P02786 89-760): as above

| RLU [RLU] | Binder |
| --- | --- |
| 4.09e+06 | B41 |
| 3.62e+06 | B42 |
| 2.42e+06 | B43 |

Each binder was assayed against T3, apical domain of cynomolgus CD71 (cynomolgus, UniProt A0A2K5X958 189-383) (assay: primary ELISA; also: test concentration or dose not given here).
T3 construct: domain: apical domain; also called Cyno apical domain
T3 sequence (A0A2K5X958 entry or part of it): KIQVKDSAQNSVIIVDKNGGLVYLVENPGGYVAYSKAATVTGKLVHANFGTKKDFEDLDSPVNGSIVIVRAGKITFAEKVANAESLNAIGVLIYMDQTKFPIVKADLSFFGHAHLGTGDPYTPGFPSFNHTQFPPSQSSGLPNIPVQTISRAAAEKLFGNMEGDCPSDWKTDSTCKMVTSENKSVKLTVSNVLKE

| RLU [RLU] | Binder |
| --- | --- |
| 5.46e+06 | B41 |
| 4.95e+06 | B42 |
| 4.72e+06 | B43 |

These binders were tested against T2, human CD71 extracellular domain (assay: primary ELISA, signal ratio to HSA).

| hCD71:HSA | Binder |
| --- | --- |
| 243 | B41 |
| 84 | B42 |
| 77 | B43 |

What follows are binders tested against T3, apical domain of cynomolgus CD71 (assay: primary ELISA, signal ratio to HSA).

| Cyno apical domain:HSA | Binder |
| --- | --- |
| 325 | B41 |
| 116 | B42 |
| 149 | B43 |

Each binder was assayed against T1, human CD71 extracellular domain … (assay: primary ELISA, RLU ratio to HSA).

| hCD71:HSA | Binder |
| --- | --- |
| 376 | B1 |
| 535 | B2 |
| 348 | B3 |
| 180 | B4 |
| 284 | B5 |
| 195 | B6 |
| 101 | B7 |
| 322 | B8 |
| 240 | B9 |
| 90 | B10 |
| 201 | B11 |
| 296 | B12 |
| 131 | B13 |
| 103 | B14 |
| 154 | B15 |
| 287 | B16 |
| 392 | B17 |
| 442 | B18 |
| 165 | B19 |
| 289 | B20 |

| hCD71:HSA | Binder |
| --- | --- |
| 289 | B21 |
| 724 | B22 |
| 77 | B23 |
| 350 | B24 |
| 99 | B25 |
| 77 | B26 |
| 512 | B27 |
| 193 | B28 |
| 375 | B29 |
| 378 | B30 |
| 133 | B31 |
| 62 | B32 |
| 208 | B33 |
| 140 | B34 |
| 576 | B35 |
| 362 | B36 |
| 276 | B37 |
| 375 | B38 |
| 435 | B39 |
| 291 | B40 |
